In assay [1] the target is RlpA-Δ32 (P. aeruginosa PAO1) (UniProt Q9X6V6). The experiment in a line: SPR.
The target of assay [2] is RlpA-Δ32·MltF2 complex (MST) (P. aeruginosa PAO1) (UniProt Q9X6V6). The experiment in a line: MST.
In assay [3] the target is RlpA-Δ32, fluorescently labeled (P. aeruginosa PAO1) (UniProt Q9X6V6). The experiment in a line: MST.
Assay [4] addresses cross-linked RlpA-Δ32·MltF2 complex (SPR chip) (P. aeruginosa PAO1) (UniProt Q9X6V6). The experiment in a line: SPR.
For assay [5], the target named is RlpA-SPOR (P. aeruginosa PAO1) (UniProt Q9X6V6). The experiment in a line: SPR.
For assay [6] the target is unchanged. The assay is described as follows: ITC.

As to PBP1b (enzyme), in assay [1], the Kd was 55 nM, the koff was 0.0005 s⁻¹ and the kon turned out to be 9100 M⁻¹ s⁻¹. For the same substance, in assay [2], the Kd amounted to 57 nM. The substance further gave a Kd in assay [3] of 16 nM.
In the case of “PBP1a (from UniProt Q07806 27-822) (enzyme)”, in assay [4], the Kd was found to be 280 nM, the koff came to 0.0048 s⁻¹ and the kon is 51700 M⁻¹ s⁻¹.
Regarding SltB3 (enzyme), the Kd is 2140 nM in assay [5]; 140 nM in assay [1]; 79 nM in assay [6]; 390 nM in assay [2]; 92 nM in assay [3]. Further, the koff in assay [5] and in assay [1] was 0.00079 s⁻¹ each time. Further, the association rate constant (kon) was 370 M⁻¹ s⁻¹ in assay [5] and 5500 M⁻¹ s⁻¹ in assay [1]. In assay [6], this substance yielded a stoichiometry N of 1.

(Values after article PMC9712689.)
